# Test results reported in publication PMC11252808 (Proceedings of the National Academy of Sciences of the …, 2024).
# Where no end group is shown, it is not given here. [ ]: non-standard residue; d: D form. pS = N[C@@H](COP(=O)(O)O)C(=O)O
# Biological target: T1, recombinant SUFU (UniProt Q9UMX1 1-484)
# T1 sequence (looked up): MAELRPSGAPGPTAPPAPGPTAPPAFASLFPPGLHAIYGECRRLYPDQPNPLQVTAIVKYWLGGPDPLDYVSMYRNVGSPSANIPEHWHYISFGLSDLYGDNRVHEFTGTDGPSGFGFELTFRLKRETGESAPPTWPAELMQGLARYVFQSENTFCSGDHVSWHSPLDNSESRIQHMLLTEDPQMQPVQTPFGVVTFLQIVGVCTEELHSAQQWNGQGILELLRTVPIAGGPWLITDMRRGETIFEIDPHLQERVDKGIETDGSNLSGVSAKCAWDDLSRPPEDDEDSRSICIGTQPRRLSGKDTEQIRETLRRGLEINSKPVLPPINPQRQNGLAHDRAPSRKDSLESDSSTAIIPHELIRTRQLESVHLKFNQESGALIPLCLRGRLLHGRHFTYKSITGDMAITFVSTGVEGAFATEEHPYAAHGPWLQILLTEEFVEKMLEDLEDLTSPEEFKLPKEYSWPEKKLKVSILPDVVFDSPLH
# Test: SPR
binder,measurement,value
"MIRT[pS]PNSLVTILNNSRSSSSASGSYGHLSASAISPA (peptide, UniProt P10071 309-345, looked up) [phosphorylated GLI3 peptide (phospho-GLI3^S313_(309–345))]",Kd,5.08 µM
